Experimental data from PMC6019326.
Read-outs that look alike come from different tables or passages of the source.

What was measured:
Test in all cases: SPR
[1] = biological target: recombinant APOL1 G2 protein (His-tag fused, risk variant) (human) (UniProt O14791)
[2] = biological target: recombinant APOL1 G1 protein (His-tag fused, risk variant) (human) (UniProt O14791)
[3] = biological target: recombinant APOL1 G2 protein (His-tag fused, risk variant) (human) (UniProt O14791); remark: listed apart in the source
[4] = biological target: recombinant APOL1 G1 protein (His-tag fused, risk variant) (human) (UniProt O14791); remark: listed apart in the source
[5] = biological target: recombinant APOL1 G0 protein (His-tag fused, reference allele) (human) (UniProt O14791)

Kd [1] [µM]	Kd [2] [µM]	Kd [3] [µM]	Kd [4] [µM]	Kd [5] [µM]	KD for suPAR in the presence of αvβ3 integrin (5 nM) with Mn2+ [1] [µM]	KD for suPAR in the presence of αvβ3 integrin (5 nM) with Mn2+ [2] [µM]	Substance
> 1000	> 1000						human integrin α3β1 (from UniProt P26006 33-1051; P05556 21-728) (complex)
10.7	0.528	0.007	0.007	0.574			human recombinant protein integrin αvβ3 (from UniProt P06756 31-1048; P05106 27-718) (complex)
					0.024	0.277	human suPAR (soluble urokinase plasminogen activator receptor), recombinant (from UniProt Q03405 23-305)
